# Test results published in publication PMC11514458.
# T1: BCDX2 complex (human, UniProt O15315;O43502;O75771;O43543 1-384;1-376;1-328;1-280)
# T1 sequence 1: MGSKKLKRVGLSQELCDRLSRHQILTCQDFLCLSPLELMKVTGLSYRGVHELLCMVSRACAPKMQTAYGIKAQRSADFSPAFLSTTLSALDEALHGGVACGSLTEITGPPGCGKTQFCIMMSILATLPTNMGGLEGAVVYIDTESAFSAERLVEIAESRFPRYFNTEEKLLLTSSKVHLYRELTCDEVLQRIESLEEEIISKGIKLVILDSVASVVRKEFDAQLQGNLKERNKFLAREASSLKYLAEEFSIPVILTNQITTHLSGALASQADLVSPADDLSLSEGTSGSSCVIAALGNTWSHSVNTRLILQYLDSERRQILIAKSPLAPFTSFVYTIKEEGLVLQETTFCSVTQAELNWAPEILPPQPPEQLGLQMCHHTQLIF
# T1 sequence 2: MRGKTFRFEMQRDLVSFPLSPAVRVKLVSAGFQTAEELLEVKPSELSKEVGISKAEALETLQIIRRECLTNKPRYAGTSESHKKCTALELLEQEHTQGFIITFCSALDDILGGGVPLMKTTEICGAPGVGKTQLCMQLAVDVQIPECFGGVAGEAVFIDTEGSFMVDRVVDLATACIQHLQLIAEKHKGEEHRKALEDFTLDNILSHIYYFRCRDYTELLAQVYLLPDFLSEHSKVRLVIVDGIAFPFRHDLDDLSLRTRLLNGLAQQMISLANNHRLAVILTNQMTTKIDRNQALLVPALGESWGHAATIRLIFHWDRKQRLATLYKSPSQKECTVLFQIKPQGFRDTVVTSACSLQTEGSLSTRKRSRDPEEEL
# T1 sequence 3: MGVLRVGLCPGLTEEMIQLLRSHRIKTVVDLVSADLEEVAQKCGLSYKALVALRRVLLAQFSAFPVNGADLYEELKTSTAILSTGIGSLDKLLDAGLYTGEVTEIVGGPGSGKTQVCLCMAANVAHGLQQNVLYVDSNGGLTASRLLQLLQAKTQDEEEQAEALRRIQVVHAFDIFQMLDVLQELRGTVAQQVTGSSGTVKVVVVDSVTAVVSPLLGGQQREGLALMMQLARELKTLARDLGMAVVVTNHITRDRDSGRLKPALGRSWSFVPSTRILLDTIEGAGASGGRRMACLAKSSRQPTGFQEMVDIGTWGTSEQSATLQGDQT
# T1 sequence 4: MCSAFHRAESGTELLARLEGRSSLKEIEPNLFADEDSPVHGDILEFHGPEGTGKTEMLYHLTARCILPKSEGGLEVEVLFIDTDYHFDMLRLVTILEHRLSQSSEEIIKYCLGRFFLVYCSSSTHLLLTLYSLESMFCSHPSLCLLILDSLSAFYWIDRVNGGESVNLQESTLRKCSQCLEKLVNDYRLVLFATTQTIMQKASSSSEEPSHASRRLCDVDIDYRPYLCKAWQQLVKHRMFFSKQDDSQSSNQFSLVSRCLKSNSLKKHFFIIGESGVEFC
# T2: BC complex (human, UniProt O15315;O43502 1-384;1-376)
# T2 sequence 1: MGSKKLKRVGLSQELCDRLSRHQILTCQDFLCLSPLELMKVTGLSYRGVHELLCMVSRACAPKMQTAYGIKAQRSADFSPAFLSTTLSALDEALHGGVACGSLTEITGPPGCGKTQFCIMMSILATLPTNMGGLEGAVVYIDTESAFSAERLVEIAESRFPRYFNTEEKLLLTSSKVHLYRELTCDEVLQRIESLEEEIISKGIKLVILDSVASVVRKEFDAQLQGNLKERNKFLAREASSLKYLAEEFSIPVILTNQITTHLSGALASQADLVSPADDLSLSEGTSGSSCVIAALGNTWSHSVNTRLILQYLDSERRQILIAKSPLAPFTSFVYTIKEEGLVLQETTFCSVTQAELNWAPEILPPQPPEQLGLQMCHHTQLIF
# T2 sequence 2: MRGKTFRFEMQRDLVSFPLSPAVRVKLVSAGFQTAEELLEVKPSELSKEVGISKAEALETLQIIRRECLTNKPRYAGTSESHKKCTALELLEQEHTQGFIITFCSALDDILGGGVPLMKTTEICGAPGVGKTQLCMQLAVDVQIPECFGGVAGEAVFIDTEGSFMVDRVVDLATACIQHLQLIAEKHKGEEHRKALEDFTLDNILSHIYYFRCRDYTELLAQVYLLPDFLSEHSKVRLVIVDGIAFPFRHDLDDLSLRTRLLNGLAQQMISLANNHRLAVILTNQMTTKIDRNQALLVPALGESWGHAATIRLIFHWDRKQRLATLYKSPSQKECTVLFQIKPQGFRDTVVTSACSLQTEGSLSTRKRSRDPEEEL
# T3: DX2 complex (human, UniProt O75771;O43543 1-328;1-280)
# T3 sequence 1: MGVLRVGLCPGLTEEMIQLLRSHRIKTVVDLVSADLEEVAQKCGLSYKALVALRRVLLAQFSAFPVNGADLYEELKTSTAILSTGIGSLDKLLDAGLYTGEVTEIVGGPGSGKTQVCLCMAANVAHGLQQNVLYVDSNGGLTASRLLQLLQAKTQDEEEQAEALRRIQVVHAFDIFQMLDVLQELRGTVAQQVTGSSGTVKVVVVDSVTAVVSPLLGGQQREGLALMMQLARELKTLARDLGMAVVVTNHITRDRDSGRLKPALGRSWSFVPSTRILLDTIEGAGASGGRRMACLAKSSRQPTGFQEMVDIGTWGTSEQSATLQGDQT
# T3 sequence 2: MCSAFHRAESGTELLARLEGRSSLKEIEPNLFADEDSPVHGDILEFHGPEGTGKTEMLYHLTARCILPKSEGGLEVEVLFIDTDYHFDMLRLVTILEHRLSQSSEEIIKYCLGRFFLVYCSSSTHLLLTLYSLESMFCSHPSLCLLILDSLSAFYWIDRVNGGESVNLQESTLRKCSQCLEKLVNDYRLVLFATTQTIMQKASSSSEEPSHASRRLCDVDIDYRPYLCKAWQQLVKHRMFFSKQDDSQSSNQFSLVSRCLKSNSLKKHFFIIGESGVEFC
# B1: 3' flap (mixed)
# DNA 1: AGCTACCATGCCTGCACGAATTAAGCAATTCGTAATCATGGTCATAGCT
# DNA 2: AGCTATGACCATGATTACGAATTGCTTGGAATCCTGACGAACTGTAG
# DNA 3: AATTCGTGCAGGCATGGTAGCT
# B2: Y-form (mixed)
# DNA 1: AGCTACCATGCCTGCACGAATTAAGCAATTCGTAATCATGGTCATAGCT
# DNA 2: AGCTATGACCATGATTACGAATTGCTTGGAATCCTGACGAACTGTAG
# How the values were obtained:
# [1] = target: T1, BCDX2 complex; test: EMSA; stronger than miniBRCA2; EMSA: 20 mM Tris-HCl pH 7.5, 2 mM MgCl2, 2 mM ATP, 37 C, 20 nM DNA, glutaraldehyde fixation; stopped-flow: 25 mM Tris-HCl pH 7.5, 5 mM MgCl2, 50 mM KCl, 2 mM ATP, 0.5 mM EDTA, 10% glycerol, 37 C; BLI: 50 mM Tris-HCl pH 7.5, 2 mM ATP, 50 mM KCl, 5 mM MgCl2, 0.05% Tween 20, room temperature; conditions: protein: recombinant; tags: Strep-tag and His-tag (XRCC2 N-terminal His); copies: 1;1;1;1; label: 5' FITC
# [2] = target: T2, BC complex; test: EMSA; EMSA: 20 mM Tris-HCl pH 7.5, 2 mM MgCl2, 2 mM ATP, 37 C, 20 nM DNA, glutaraldehyde fixation; stopped-flow: 25 mM Tris-HCl pH 7.5, 5 mM MgCl2, 50 mM KCl, 2 mM ATP, 0.5 mM EDTA, 10% glycerol, 37 C; BLI: 50 mM Tris-HCl pH 7.5, 2 mM ATP, 50 mM KCl, 5 mM MgCl2, 0.05% Tween 20, room temperature; conditions: protein: recombinant; tags: Strep-tag; copies: 1;1; label: 3' FITC
# [3] = target: T3, DX2 complex; test: as above; conditions: protein: recombinant; tags: His-tag; copies: 1;1; label: 3' FITC
# [4] = target: T1, BCDX2 complex; test: EMSA; ATP, Mg2+; EMSA: 20 mM Tris-HCl pH 7.5, 2 mM MgCl2, 2 mM ATP, 37 C, 20 nM DNA, glutaraldehyde fixation; stopped-flow: 25 mM Tris-HCl pH 7.5, 5 mM MgCl2, 50 mM KCl, 2 mM ATP, 0.5 mM EDTA, 10% glycerol, 37 C; BLI: 50 mM Tris-HCl pH 7.5, 2 mM ATP, 50 mM KCl, 5 mM MgCl2, 0.05% Tween 20, room temperature; conditions: protein: recombinant; tags: Strep-tag and His-tag (XRCC2 N-terminal His); copies: 1;1;1;1; label: 3' FITC
# [5] = target: T1, BCDX2 complex; test: EMSA; stronger than ssDNA; EMSA: 20 mM Tris-HCl pH 7.5, 2 mM MgCl2, 2 mM ATP, 37 C, 20 nM DNA, glutaraldehyde fixation; stopped-flow: 25 mM Tris-HCl pH 7.5, 5 mM MgCl2, 50 mM KCl, 2 mM ATP, 0.5 mM EDTA, 10% glycerol, 37 C; BLI: 50 mM Tris-HCl pH 7.5, 2 mM ATP, 50 mM KCl, 5 mM MgCl2, 0.05% Tween 20, room temperature; conditions: protein: recombinant, tags: Strep-tag and His-tag (XRCC2 N-terminal His), copies: 1;1;1;1
binder,measurement,setting,value
CTAAGTTCGTCAGGATTCCAGCATTCTAACAGTCATAGCG (ssDNA) [ssDNA 40mer],binding result,[1],binds
GTACAAAGCTCTGGCATGATACTATGCGGC (ssDNA) [ssDNA 30mer],binding result,[1],binds
AGCTACCATGCCTGCACGAATTAAGCAATTCGTAATCATGGTCATAGCT (ssDNA) [ssDNA 49mer],binding result,[2],no binding
same,binding result,[3],no binding
same,binding result,[4],binds
B1,binding result,"[5]; label: 5' FITC on strand 1, flap 1:2 1:3",binds
B2,binding result,"[5]; label: 3' FITC on strand 1, fork 1:2",binds
